For assay [1], the target named is recombinant N1 (neuraminidase subtype 1 head domain of A/Brisbane/02/2018 (H1N1) fused to the tetrabrachion tetramerization domain) (not stated | influenza A virus A/Brisbane/02/2018 (H1N1)) (UniProt Q54436). Briefly: SEC. A general note: SEC sorts molecules by how far they enter the pores of the column.
Assay [2] shares this target. Kind of assay: SEC-MALS; AdvanceBio SEC 300-Å column connected to a DAWN8 detector, 0.3 ml/min, PBS pH 7.2.
The target of assay [3] is recombinant N2 (neuraminidase subtype 2 head domain of A/Kansas/14/2017 (H3N2) fused to the tetrabrachion tetramerization domain) (not stated | influenza A virus A/Kansas/14/2017 (H3N2)) (UniProt Q54436). Kind of assay: SEC.
The target is the same in assay [4]. Briefly: SEC-MALS; AdvanceBio SEC 300-Å column connected to a DAWN8 detector, 0.3 ml/min, PBS pH 7.2.

As usually defined, the stoichiometry N is a count of units in the complex or per binding partner. “recombinant N1 (neuraminidase subtype 1 head domain of A/Brisbane/02/2018 (H1N1) fused to the tetrabrachion tetramerization domain) (from UniProt Q54436 1238-1286) (enzyme)”: the stoichiometry N in assay [1] and in assay [2] was 4 in each case.

As for “recombinant N2 (neuraminidase subtype 2 head domain of A/Kansas/14/2017 (H3N2) fused to the tetrabrachion tetramerization domain) (from UniProt Q54436 1238-1286) (enzyme)”, the stoichiometry N in assay [3] and in assay [4] was 4 each time.

Source of the values: paper PMC9929470.
